Values of other authors as cited in publication PMC6667139.

Biological target: TGFβ receptor I and II (Homo sapiens) (UniProt P36897)
Sequence (P36897 34-126, chain 1 of 2): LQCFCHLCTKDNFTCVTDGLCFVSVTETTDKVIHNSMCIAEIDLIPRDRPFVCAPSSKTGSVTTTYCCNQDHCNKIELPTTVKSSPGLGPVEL
Sequence (partner, as listed by the source, chain 2 of 2): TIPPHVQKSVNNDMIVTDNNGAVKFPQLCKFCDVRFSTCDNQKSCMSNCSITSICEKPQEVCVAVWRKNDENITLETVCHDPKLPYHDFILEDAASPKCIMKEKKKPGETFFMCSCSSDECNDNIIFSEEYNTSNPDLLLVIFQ

TGFβ, sequence (P01137 279-390): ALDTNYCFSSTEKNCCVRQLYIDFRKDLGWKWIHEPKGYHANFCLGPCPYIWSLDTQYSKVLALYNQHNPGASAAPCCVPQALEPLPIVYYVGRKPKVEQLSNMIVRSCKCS

TGFβ (from UniProt P01137)
Kd: 0.05 nM
